Our source for the reverse-splicing fitness values is the RNAGym collection of RNA variant scans (doi:10.1093/molbev/msab373).

To fix the notation:
B1: Azoarcus group I ribozyme (parent)
chain: GUGCCUUGCGCCGGGAAACCACGCAAGGGAUGGUGUCAAAUUCGGCGAAACCUAAGCGCCCGCCCGGGCGUAUGGCAACGCCGAGCCAAGCUUCGGCGCCUGCGCCGAUGAAGGUGUAGAGACUAGACGGCACCCACCUAAGGCAAACGCUAUGGUGAAGGCAUAGUCCAGGGAGUGGCGAAAGUCACACAAACCGG

Variants of B1 are the subject of the data set. Description: reverse-splicing fitness (ratio to wild type); higher = more active; in vitro selection; Mg2+ level not given. In a few lines:
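An in vitro group I ribozyme library with randomized positions was T7-transcribed and gel-purified. In triplicate, 10 pmol RNA in EPPS pH 7.5 was reacted with 50 pmoles of a 30-nt RNA substrate for 1 h at 37 °C across several added MgCl2 levels (1–48 mM), then stopped with EDTA. Products were reverse transcribed from a substrate-complementary primer, PCR-amplified and sequenced (HiSeq 4000). Fitness is a variant's read proportion after selection over that before, normalised to wild type.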
Turning to C82U A111U A120G A145U C150U C169G U176C, the reverse-splicing fitness is 0.0134. In the case of C82U A111U A120G A145U C150U C169G U176A, the reverse-splicing fitness turned out to be 0.0119.

Take C82U A111U A120G A145G C150G: the reverse-splicing fitness came out at 0.00732.

For C82U A111U A120G A145G C150U, the reverse-splicing fitness was 0.0119. As to C82U A111U A120G A145G C150A, the reverse-splicing fitness stood at 0.00801.

On to C82U A111U A120G C150A C169G, for which the reverse-splicing fitness amounted to 0.0098. For the variant C82U A111U A120G C150A C169A, the reverse-splicing fitness was 0.0103. The value for C82U A111U A120G C150A C169U was 0.00823; that for C82U A111U A120C C150A C169U U176C was 0.0203; that for C82U A111U A120C C150A C169U U176A was 0.0229.

For the variant C82U A111U A120C C150A C169U U176G, the reverse-splicing fitness amounted to 0.00688.

C82U A111U A120G A145C C150G U176C: the reverse-splicing fitness was found to be 0.00719. The value for C82U A111U A120G A145C C150G U176A was 0.00493; that for C82U A111U A120G A145C C150G U176G was 0.0024; that for C82U A111U A120G C150A C169U U176C was 0.0171. As for C82U A111U A120G C150A C169U U176G, the figure is 0.00726. Take C82U A111U A120G C150A C169U U176A: the reverse-splicing fitness was found to be 0.0209. In the case of C82U A111U A120G C169U U176G, the reverse-splicing fitness came to 0.00594.

For C82U A111U A120G C169U U176A, the reverse-splicing fitness was 0.0215.

Take C82U A111U A120G C169U U176C: the reverse-splicing fitness is 0.0161.

For the variant C82U A111U A120G A145U C150G C169A, the reverse-splicing fitness is 0.00759.

Consider C82U A111U A120G A145U C150G C169U, for which the reverse-splicing fitness is 0.00779. Consider C82U A111U A120G A145U C150G C169G, for which the reverse-splicing fitness came to 0.00671. As for C82U A111U A120G A145C C150G C169U U176A, the figure is 0.0142; as for C82U A111U A120G A145C C150G C169U U176C, 0.0113. The value for C82U A111U A120G A145C C150G C169U U176G was 0.00495. Consider C82U A111U A120G C150U C169G U176G, for which the reverse-splicing fitness worked out at 0.00456. As for C82U A111U A120G C150U C169G U176C, the figure is 0.0168. Consider C82U A111U A120G C150U C169G U176A, for which the reverse-splicing fitness worked out at 0.0146. As for C82U A111U A120G A145C C150G C169G U176C, the figure is 0.0069.

In the case of C82U A111U A120G A145C C150G C169G U176G, the reverse-splicing fitness came out at 0.00424.

As for C82U A111U A120G A145C C150G C169G U176A, the reverse-splicing fitness is 0.00849. As for C82U A111U A120G A145U C150G U176G, the figure is 0.00302; as for C82U A111U A120G A145U C150G U176C, 0.00777.

In the case of C82U A111U A120G A145U C150G U176A, the reverse-splicing fitness worked out at 0.00538. The value for C82U A111U A120C C150G U176A was 0.00451; that for C82U A111U A120C C150G U176C was 0.00725. Take C82U A111U A120C C150G U176G: the reverse-splicing fitness was determined as 0.00352. As for C82U A111U A120G A145U C150G C169A U176C, the figure is 0.00812; as for C82U A111U A120G A145U C150G C169A U176G, 0.00439. The value for C82U A111U A120G A145U C150G C169A U176A was 0.00889; that for C82U A111U A120C C150A C169A U176C was 0.0182.

Take C82U A111U A120C C150A C169A U176A: the reverse-splicing fitness was 0.0182. The value for C82U A111U A120C C150A C169A U176G was 0.00592; that for C82U A111U A120C C169G was 0.00824; that for C82U A111U A120C C169U was 0.0117. As for C82U A111U A120C C169A, the figure is 0.00717; as for C82U A111U A120C A145U C150U U176G, 0.0051.

Consider C82U A111U A120G C150G C169U U176G, for which the reverse-splicing fitness came out at 0.00556. As for C82U A111U A120G C150G C169U U176C, the figure is 0.0119; as for C82U A111U A120G C150G C169U U176A, 0.0122. As for C82U A111U A120G C150A, the figure is 0.00947; as for C82U A111U A120G C150U, 0.0114. As for C82U A111U A120G C150G, the figure is 0.00696; as for C82U A111U A120C C169G U176G, 0.0049; as for C82U A111U A120C C169G U176C, 0.018. Regarding C82U A111U A120C C169G U176A, the reverse-splicing fitness is 0.0148. As for C82U A111U A120G A145G C150U U176C, the figure is 0.0171. In the case of C82U A111U A120G A145G C150U U176A, the reverse-splicing fitness was 0.00911. As for C82U A111U A120G A145G C150U U176G, the figure is 0.00569; as for C82U A111U A120C A145U C169A U176A, 0.00849; as for C82U A111U A120C A145U C169A U176G, 0.00442.

Turning to C82U A111U A120C A145U C169A U176C, the reverse-splicing fitness was found to be 0.00749. As for C82U A111U A120C C150U, the reverse-splicing fitness is 0.0179. The value for C82U A111U A120C C150A was 0.0106; that for C82U A111U A120C C150G was 0.00758. As for C82U A111U A120G A145G C169G U176G, the reverse-splicing fitness was determined as 0.00377. As to C82U A111U A120G A145G C169G U176A, the reverse-splicing fitness was determined as 0.0214. The value for C82U A111U A120G A145G C169G U176C was 0.027. The value for C82U A111U A120G C150A C169G U176A was 0.0221; that for C82U A111U A120G C150A C169G U176C was 0.0213. As for C82U A111U A120G C150A C169G U176G, the figure is 0.00529. For C82U A111U A120G A145C C150G C169A U176G, the reverse-splicing fitness turned out to be 0.00478. As for C82U A111U A120G A145C C150G C169A U176C, the figure is 0.006. As for C82U A111U A120G A145C C150G C169A U176A, the figure is 0.00764. As for C82U A111U A120G A145G C150A C169A, the figure is 0.0105. As for C82U A111U A120G A145G C150A C169G, the reverse-splicing fitness is 0.00828.

As for C82U A111U A120G A145G C150A C169U, the reverse-splicing fitness was 0.00848. As for C82U A111U A120G A145C C169U U176A, the figure is 0.0194. The value for C82U A111U A120G A145C C169U U176C was 0.0108; that for C82U A111U A120G A145C C169U U176G was 0.00376; that for C82U A111U A120G A145C C169A U176A was 0.00993. As for C82U A111U A120G A145C C169A U176C, the reverse-splicing fitness turned out to be 0.00603. As for C82U A111U A120G A145C C169A U176G, the figure is 0.00391.
